# Laboratory results published in paper PMC8034652 (Nucleic Acids Research, 2021).
# T1: FOXC2-DBD (UniProt Q99958 72-171)
# T1 sequence: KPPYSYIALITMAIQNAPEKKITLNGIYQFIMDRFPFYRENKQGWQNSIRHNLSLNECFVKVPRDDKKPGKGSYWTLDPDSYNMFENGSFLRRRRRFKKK
# T2: FOXI1-DBD (UniProt Q12951 119-223)
# T2 sequence: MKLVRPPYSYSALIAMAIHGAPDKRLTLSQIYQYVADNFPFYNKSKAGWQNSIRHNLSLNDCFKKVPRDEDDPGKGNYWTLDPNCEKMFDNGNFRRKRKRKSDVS
# T3: FOXM1-DBD (UniProt Q08050 222-360)
# T3 sequence: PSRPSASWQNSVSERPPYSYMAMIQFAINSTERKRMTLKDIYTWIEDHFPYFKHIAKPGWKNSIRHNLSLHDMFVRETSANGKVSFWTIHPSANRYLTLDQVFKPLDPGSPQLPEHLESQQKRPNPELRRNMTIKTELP
# B1: DIV2 20-bp crystal DNA (dsDNA)
# DNA 1: ACCGTAAACATGTTTACGGT
# DNA 2: ACCGTAAACATGTTTACGGT
# B2: FOXO3-DBD (residues 158-253) (domain or fragment)
# chain: GNLSYADLITRAIESSPDKRLTLSQIYEWMVRCVPYFKDKGDSNSSAGWKNSIRHNLSLHSRFMRVQNEGTGKSSWWIINPDGGKSGKAPRRRAVS
# B3: FKH_26 (dsDNA)
# DNA 1: GACGAAGTAAACACGGCAGGTTCGTC
# DNA 2: GACGAACCTGGCGTGTTTACTTCGTC
# B4: FOXI1-DBD (residues 119-223) (domain or fragment)
# chain: MKLVRPPYSYSALIAMAIHGAPDKRLTLSQIYQYVADNFPFYNKSKAGWQNSIRHNLSLNDCFKKVPRDEDDPGKGNYWTLDPNCEKMFDNGNFRRKRKRKSDVS
# B5: DIV2_26 (dsDNA)
# DNA 1: GACGAAGTAAACATGTTTACTTCGTC
# DNA 2: GACGAAGTAAACATGTTTACTTCGTC
# B6: human FOXO1-DBD (residues 151-266) (domain or fragment)
# chain: KSSSSRRNAWGNLSYADLITKAIESSAEKRLTLSQIYEWMVKSVPYFKDKGDSNSSAGWKNSIRHNLSLHSKFIRVQNEGTGKSSWWMLNPEGGKSGKSPRRRAASMDNNSKFAKS
# Tests used:
# [1] = molecular target: T1, FOXC2-DBD; test: crystal structure
# [2] = molecular target: T4, FOXO1-DBD (human, UniProt Q12778 151-266); test: crystal structure
# [3] = molecular target: the molecule itself; test: […]
# [4] = molecular target: T4, FOXO1-DBD; test: ITC
# [5] = molecular target: FOXO1-DBD Q227R (human, UniProt Q12778 151-266, Q227R); test: EMSA
# [6] = molecular target: FOXO1-DBD R225E (human, UniProt Q12778 151-266, R225E); test: EMSA
# [7] = molecular target: FOXO3-DBD (UniProt O43524 158-253); test: EMSA
# [8] = molecular target: T2, FOXI1-DBD; test: EMSA
# [9] = molecular target: T1, FOXC2-DBD; test: EMSA
# [10] = molecular target: T3, FOXM1-DBD; test: EMSA
# [11] = molecular target: the molecule itself; test: crystal structure
binder,measurement,setting,value
B1,binding result,[1],binds
same,binding result,[2],binds
B2,binding result,[3],binds
B3,Kd,[4],1380 nM
same,binding result,[5],binds
same,binding result,[6],binds
B4,binding result,[3],binds
B5,Kd,[4],150 nM
same,binding result,[7],binds
same,binding result,[8],binds
same,binding result,[9],binds
same,binding result,[10],binds
B6,stoichiometry N,[11],2
